# Laboratory results as given in PMC7863910, “A novel stress-inducible CmtR-ESX3-Zn^2+ regulatory pathway essential for survival of Mycobacterium bovis under oxidative stress” (The Journal of Biological Chemistry, 2020).
# T1: Zur (zinc uptake repressor), purified (UniProt P9WN85 1-130)
# T1 sequence: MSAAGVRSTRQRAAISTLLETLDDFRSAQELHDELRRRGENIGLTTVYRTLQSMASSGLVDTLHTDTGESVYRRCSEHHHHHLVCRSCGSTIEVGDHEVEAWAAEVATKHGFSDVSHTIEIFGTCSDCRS
# B1: CmtR, His-tagged, purified (natural protein)
# chain: MLTCEMRESALARLGRALADPTRCRILVALLDGVCYPGQLAAHLGLTRSNVSNHLSCLRGCGLVVATYEGRQVRYALADSHLARALGELVQVVLAVDTDQPCVAERAASGEAVEMTGS
# notes: also called His-tagged CmtR
# Target: T1, Zur (zinc uptake repressor), purified
# Test: SPR; Biacore 3000; […] (200 nM) […]; running buffer 10 mM HEPES pH 7.4, 150 mM NaCl, 50 mM EDTA, 0.005% surfactant P20
# Conditions: both partners purified
binder,measurement,value
B1,binding result,binds
